The text below walks through data of the RNAGym collection of RNA variant scans (doi:10.1093/molbev/msab373).

Sequences and labels used below:
B1: Azoarcus group I ribozyme (parent)
chain: GUGCCUUGCGCCGGGAAACCACGCAAGGGAUGGUGUCAAAUUCGGCGAAACCUAAGCGCCCGCCCGGGCGUAUGGCAACGCCGAGCCAAGCUUCGGCGCCUGCGCCGAUGAAGGUGUAGAGACUAGACGGCACCCACCUAAGGCAAACGCUAUGGUGAAGGCAUAGUCCAGGGAGUGGCGAAAGUCACACAAACCGG

Variants of B1 are the subject of this series. The experiment in a line: reverse-splicing fitness (ratio to wild type); higher = more active; in vitro selection; Mg2+ level not given. The essentials: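 An in vitro group I ribozyme library with randomized positions was T7-transcribed and gel-purified. In triplicate, 10 pmol RNA in EPPS pH 7.5 was reacted with 50 pmoles of a 30-nt RNA substrate for 1 h at 37 °C across several added MgCl2 levels (1–48 mM), then stopped with EDTA. Products were reverse transcribed from a substrate-complementary primer, PCR-amplified and sequenced (HiSeq 4000). Fitness is a variant's read proportion after selection over that before, normalised to wild type.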
Consider C82U A111U A120U C169A, for which the reverse-splicing fitness amounted to 0.00267.
The result for C82U A111U A120U C169G reads 0.00397; that for C82U A111U A120U A145U C150A C169G U176G, 0.00192; that for C82U A111U A120U A145U C150A C169G U176A, 0.00311.
The result for C82U A111U A120U A145U C150A C169G U176C reads 0.00231; that for C82U A111U A120U A145C U176C, 0.00756.
The figure for C82U A111U A120U A145C U176G is 0.00259; for C82U A111U A120U A145C U176A it is 0.00627.
Take C82U A111U A145G C150G U176A: the reverse-splicing fitness turned out to be 0.0103.
The result for C82U A111U A145G C150G U176G reads 0.00676.
The result for C82U A111U A145G C150G U176C reads 0.0196; that for C82U A111U A120U A145G U176C, 0.0112.
As for C82U A111U A120U A145G U176A, the reverse-splicing fitness is 0.00732.
The result for C82U A111U A120U A145G U176G reads 0.00331.
The figure for C82U A111U A145C C169A U176A is 0.00952.
The result for C82U A111U A145C C169A U176C reads 0.00614; that for C82U A111U A145C C169A U176G, 0.00457; that for C82U A111U A120U C150G C169U U176G, 0.00264.
As to C82U A111U A120U C150G C169U U176C, the reverse-splicing fitness is 0.00377.
The result for C82U A111U A120U C150G C169U U176A reads 0.00294; that for C82U A111U A120U C169A U176C, 0.00317.
The result for C82U A111U A120U C169A U176A reads 0.00285; that for C82U A111U A120U C169A U176G, 0.00193.
As to C82U A111U A120U A145U C150U U176C, the reverse-splicing fitness turned out to be 0.00855.
The result for C82U A111U A120U A145U C150U U176G reads 0.00324; that for C82U A111U A120U A145U C150U U176A, 0.00665; that for C82U A111U A120U A145G C150A C169G U176A, 0.00789.
For C82U A111U A120U A145G C150A C169G U176C, the reverse-splicing fitness turned out to be 0.0045.
The figure for C82U A111U A120U A145G C150A C169G U176G is 0.00241; for C82U A111U A120U A145G C150G C169A U176C it is 0.00711.
The figure for C82U A111U A120U A145G C150G C169A U176A is 0.0098.
The figure for C82U A111U A120U A145G C150G C169A U176G is 0.00474; for C82U A111U A120U C150G C169U it is 0.00478.
On to C82U A111U A120U C150G C169G, for which the reverse-splicing fitness was determined as 0.00584.
The result for C82U A111U A120U C150G C169A reads 0.00657; that for C82U A111U A145C C150A U176G, 0.00625; that for C82U A111U A145C C150A U176C, 0.013.
As for C82U A111U A145C C150A U176A, the reverse-splicing fitness came to 0.0116.
The result for C82U A111U A120U A145G C150A U176C reads 0.00627; that for C82U A111U A120U A145G C150A U176G, 0.00271; that for C82U A111U A120U A145G C150A U176A, 0.00691.
The result for C82U A111U A145C C150U C169U U176C reads 0.0076; that for C82U A111U A145C C150U C169U U176A, 0.0134.
The figure for C82U A111U A145C C150U C169U U176G is 0.00525.
On to C82U A111U A120U C150G U176G, for which the reverse-splicing fitness came out at 0.00237.
The figure for C82U A111U A120U C150G U176C is 0.005.
The figure for C82U A111U A120U C150G U176A is 0.00352; for C82U A111U A120U A145U U176C it is 0.0111; for C82U A111U A120U A145U U176A it is 0.00758.
The result for C82U A111U A120U A145U U176G reads 0.00339; that for C82U A111U A120U C150G C169G U176A, 0.00411; that for C82U A111U A120U C150G C169G U176G, 0.00254.
For the variant C82U A111U A120U C150G C169G U176C, the reverse-splicing fitness was found to be 0.00263.
The figure for C82U A111U A120U A145U C150U C169A is 0.00254; for C82U A111U A120U A145U C150U C169U it is 0.00365; for C82U A111U A120U A145U C150U C169G it is 0.00343.
The figure for C82U A111U A120U A145U C150A C169U is 0.00279; for C82U A111U A120U A145U C150A C169G it is 0.00254.
The result for C82U A111U A120U A145U C150A C169A reads 0.00215; that for C82U A111U A145C C150U C169A U176C, 0.00663.
C82U A111U A145C C150U C169A U176A: the reverse-splicing fitness was determined as 0.0108.
C82U A111U A145C C150U C169A U176G: the reverse-splicing fitness worked out at 0.00651.
The result for C82U A111U A120U A145U C150A C169A U176C reads 0.00283.
The result for C82U A111U A120U A145U C150A C169A U176G reads 0.00206.
The figure for C82U A111U A120U A145U C150A C169A U176A is 0.00233; for C82U A111U A145G C150U C169A U176G it is 0.00684; for C82U A111U A145G C150U C169A U176A it is 0.0156.
C82U A111U A145G C150U C169A U176C: the reverse-splicing fitness was found to be 0.0159.
The figure for C82U A111U A145G C150G C169G U176A is 0.00984; for C82U A111U A145G C150G C169G U176C it is 0.0116.
For C82U A111U A145G C150G C169G U176G, the reverse-splicing fitness was determined as 0.00579.
The figure for C82U A111U A120U C169G U176G is 0.00193.
The figure for C82U A111U A120U C169G U176C is 0.00303; for C82U A111U A120U C169G U176A it is 0.00316; for C82U A111U A120U A145U C169U U176G it is 0.00177.
For C82U A111U A120U A145U C169U U176C, the reverse-splicing fitness was found to be 0.00278.
The figure for C82U A111U A120U A145U C169U U176A is 0.00286.
The figure for C82U A111U A120U C150U U176G is 0.00363; for C82U A111U A120U C150U U176A it is 0.00668; for C82U A111U A120U C150U U176C it is 0.0088.
The result for C82U A111U A145C C150G C169U U176G reads 0.00515; that for C82U A111U A145C C150G C169U U176C, 0.00969; that for C82U A111U A145C C150G C169U U176A, 0.00804.
